{"source": "paper PMC5888981", "about": "“Scopoletin 8-hydroxylase: a novel enzyme involved in coumarin biosynthesis and iron-deficiency responses in Arabidopsis” (Journal of Experimental Botany, 2018)", "proteins": {"B1": {"name": "S8H (scopoletin 8-hydroxylase; At3g12900 oxidoreductase) (Arabidopsis thaliana) (protein)", "chain": "GINFEDQTTLFNFVVREGNGVKGMIDSGLSSVPRPFVQPLSERIPTQKALTCEATQPIDLSNLDGPQHKEVAKQIVEAAETLGFFQVVNHGVSVELLELLKSSAHEFFAQAPEEKSMYLKEVSPSKLVKYGTSFVPDKEKAIEWKDYVSMLYTNDSEALQHWPQPCREVALEFLNSSMEMVKNVVNILMENVGVTLEEEKMNGLMGTKMVNMNYYPTCPSPELTVGVGRHSDMGMLTVLLQDGIGGLYVKLDNGEWAEIPPVHGALVINIGDTLQILSNGKYKSAEHRVRTTNIGSRVSVPIFTAPNPSQKVGPLPEVVKRDGVARYKEFLFQDYMNNFFGQPHDGKKSLDFARAE", "notes": "S8H ORF in pET28a+ (BamHI/XhoI), 6xHis-tagged, no tag removal described; E. coli Rosetta 2; TALON purified"}}, "substrate": "COc1cc2ccc(=O)oc2cc1O", "assay": "purified protein", "type": "biochemical, Arabidopsis thaliana", "settings": "Fe2+, 2-oxoglutarate and ascorbate, pH 8.0 (methods b28 say optimal pH 7.0), 31.5 °C, 10 min, 0.1 M potassium phosphate"}
{"protein": "B1", "values": [{"measurement": "Km", "value": "11 ± 2", "unit": "µM"}, {"measurement": "kcat", "value": "1.73 ± 0.09", "unit": "s^–1"}]}
